The test has as its target Recombinant human CD38 extracellular domain (amino acids 43–300, hCD38-ECD) (human) (UniProt P28907). Kind of test: BLI; Octet Red96, room temperature; biotin conjugated hCD38-ECD captured on SA biosensor; scFv in PBS, 0.02% Tween-20, 0.05% BSA, pH 7.4; association 300 s, dissociation 1200 s; 1:1 Langmuir model; for RP02 (biphasic dissociation) only the initial 0-330 s fitted, apparent KD.

B1: anti-CD38 scFv antibody RP02 (scFv, V domains shown)
VH: PAQLVESGPGLVKPSGTLSLTCAVSGGSISSSNWWSWVRQPPGKGLEWIGEIYHSGSTNYNPSLKSRVTISVDKSKNQFSLKLSSVTAADTAVYYCAREDYYYYMDVWGKGTTVTVQS
VL: QSVLTQPPSVSAAPGQKVTISCSGSSSNIGNNYVSWYQQLPGTAPKLLIYDNNKRPSGIPDRFSGSKSGTSATLGITGLQTGDEADYYCGTWDSSLSAGVFGGGTKLTVL
Consider B1, for which the Kd is 8.6 nM.

The values are drawn from publication PMC7967050.
